Results taken from patent US20200002414A1 (published 2020).
Changes are numbered by the printed parent chain. In names and notes the source's numbering stands.

B1: LC-V029E (antibody, V domains shown)
VH: EVQLQQSGPELVKPGASVKISCKTSGYTFTEYTMHWMKQSHRKSLEWIGGINTNNGGTGYNQKFKGKATLTVDKSSSTAYMELRSLTSEDSAVYFCARGSLYSYGNSYFDYWGQGTLVTVSS
VL: QIVLTQSPAIMSASPGEKVTITCSATSSESYMHWFQQKPGTSPKLWIYGTSNLASGVPARFSGSGSGTSYSLTISRMEAEDAATYYCQQRSSYPFTFGQGTKVEIK
B2: LC-G049C (antibody, V domains shown)
VH: B1 VH
VL: B1 VL with E29V, G49C
B3: LC-G049H (antibody, V domains shown)
VH: B1 VH
VL: B1 VL with E29V, G49H
B4: LC-Y031D (antibody, V domains shown)
VH: B1 VH
VL: B1 VL with E29V, Y31D
B5: LC-H033L (antibody, V domains shown)
VH: B1 VH
VL: B1 VL with E29V, H33L
B6: LC-H033G (antibody, V domains shown)
VH: B1 VH
VL: B1 VL with E29V, H33G
B7: HC-T053E (antibody, V domains shown)
VH: B1 VH with T53E
VL: B1 VL with E29V
B8: HC-T053D (antibody, V domains shown)
VH: B1 VH with T53D
VL: B1 VL with E29V
B9: HC-A097M (antibody, V domains shown)
VH: B1 VH with A97M
VL: B1 VL with E29V
B10: HC-R098Q (antibody, V domains shown)
VH: B1 VH with R98Q
VL: B1 VL with E29V
B11: HC-G105D (antibody, V domains shown)
VH: B1 VH with G105D
VL: B1 VL with E29V
B12: HC-M034Y (antibody, V domains shown)
VH: B1 VH with M34Y
VL: B1 VL with E29V
B13: HC-N052L (antibody, V domains shown)
VH: B1 VH with N52L
VL: B1 VL with E29V
B14: HC-A097I (antibody, V domains shown)
VH: B1 VH with A97I
VL: B1 VL with E29V
B15: HC-Y111C (antibody, V domains shown)
VH: B1 VH with Y111C
VL: B1 VL with E29V
B16: HC-M034E (antibody, V domains shown)
VH: B1 VH with M34E
VL: B1 VL with E29V
B17: HC-W112L (antibody, V domains shown)
VH: B1 VH with W112L
VL: B1 VL with E29V
B18: HC-N052C (antibody, V domains shown)
VH: B1 VH with N52C
VL: B1 VL with E29V
B19: HC-G050S (antibody, V domains shown)
VH: B1 VH with G50S
VL: B1 VL with E29V
B20: HC-I051E (antibody, V domains shown)
VH: B1 VH with I51E
VL: B1 VL with E29V
B21: HC-A097S (antibody, V domains shown)
VH: B1 VH with A97S
VL: B1 VL with E29V
B22: HC-T033C (antibody, V domains shown)
VH: B1 VH with T33C
VL: B1 VL with E29V
B23: HC-F029E (antibody, V domains shown)
VH: B1 VH with F29E
VL: B1 VL with E29V
B24: HC-D110L (antibody, V domains shown)
VH: B1 VH with D110L
VL: B1 VL with E29V
B25: HC-R098H (antibody, V domains shown)
VH: B1 VH with R98H
VL: B1 VL with E29V
B26: HC-G099E (antibody, V domains shown)
VH: B1 VH with G99E
VL: B1 VL with E29V
B27: HC-M034D (antibody, V domains shown)
VH: B1 VH with M34D
VL: B1 VL with E29V
B28: HC-L101F (antibody, V domains shown)
VH: B1 VH with L101F
VL: B1 VL with E29V
B29: HC-A097T (antibody, V domains shown)
VH: B1 VH with A97T
VL: B1 VL with E29V
B30: HC-Y111T (antibody, V domains shown)
VH: B1 VH with Y111T
VL: B1 VL with E29V
B31: HC-S103G (antibody, V domains shown)
VH: B1 VH with S103G
VL: B1 VL with E29V
B32: HC-N106E (antibody, V domains shown)
VH: B1 VH with N106E
VL: B1 VL with E29V
B33: HC-Y032D (antibody, V domains shown)
VH: B1 VH with Y32D
VL: B1 VL with E29V
B34: HC-N052V (antibody, V domains shown)
VH: B1 VH with N52V
VL: B1 VL with E29V

target: T1, human Ror2 (human, UniProt Q01974 34-403, limits assumed); assay: ELISA, human Ror2; ratio of signal at pH 6.0 to pH 7.4
T1 construct: also called hROR2; receptor tyrosine kinase-like orphan receptor 2
T1 sequence (Q01974 34-403 limits assumed): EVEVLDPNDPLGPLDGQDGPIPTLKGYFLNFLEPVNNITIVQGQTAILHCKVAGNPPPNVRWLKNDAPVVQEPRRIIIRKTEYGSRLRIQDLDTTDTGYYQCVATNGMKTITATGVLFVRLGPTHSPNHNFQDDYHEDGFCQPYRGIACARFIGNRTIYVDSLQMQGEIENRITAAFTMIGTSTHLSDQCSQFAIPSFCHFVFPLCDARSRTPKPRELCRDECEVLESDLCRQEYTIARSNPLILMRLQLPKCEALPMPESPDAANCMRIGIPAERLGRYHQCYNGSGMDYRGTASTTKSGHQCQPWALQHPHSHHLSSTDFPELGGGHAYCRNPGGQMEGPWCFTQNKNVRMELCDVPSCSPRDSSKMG

Point of comparison: B1, “ratio, pH 6.0/7.4” value 3.15. Against it:
- B2 — higher, 3.52
- B3 — higher, 15.9
- B4 — lower, 2.25
- B5 — lower, 2.08
- B6 — lower, 2.06

target: T1, human Ror2; assay: as above; remark: another data set of the same source

Point of comparison: B17, “ratio, pH 6.0/7.4” value 1.75. Against it:
- B7 — higher, 3.44
- B8 — higher, 4.99
- B9 — higher, 1.98
- B10 — higher, 2.89
- B11 — lower, 1.34
- B12 — higher, 2.31
- B13 — higher, 2.1
- B14 — higher, 1.89
- B15 — lower, 1.36
- B16 — higher, 6.3
- B18 — higher, 2.31
- B19 — higher, 2.6
- B20 — higher, 10.4
- B21 — lower, 1.67
- B22 — higher, 2.7
- B23 — higher, 1.81
- B24 — lower, 1.68
- B25 — higher, 2.63
- B26 — lower, 1.46
- B27 — higher, 5.9
- B28 — lower, 1.46
- B29 — lower, 1.67
- B30 — lower, 1.68
- B31 — lower, 1.21
- B32 — higher, 1.95
- B33 — higher, 2.88
- B34 — higher, 2.56

target: T1, human Ror2; assay: ELISA, human Ror2, pH 7.4

Point of comparison: B30, “Affinity ELISA pH 7.4” value 1.4. Against it:
- B7 — lower, 0.157
- B8 — lower, 0.222
- B9 — higher, 1.7
- B10 — lower, 0.276
- B11 — lower, 0.379
- B12 — lower, 0.391
- B13 — lower, 0.433
- B14 — higher, 1.73
- B15 — lower, 0.793
- B16 — lower, 0.185
- B17 — higher, 1.7
- B18 — lower, 0.431
- B19 — lower, 0.318
- B20 — lower, 0.1
- B21 — higher, 1.69
- B22 — lower, 0.232
- B23 — lower, 0.742
- B24 — the same, 1.4
- B25 — lower, 0.353
- B26 — lower, 0.421
- B27 — lower, 0.211
- B28 — higher, 1.41
- B29 — higher, 1.69
- B31 — lower, 0.655
- B32 — lower, 0.115
- B33 — lower, 0.51
- B34 — lower, 0.34

target: T1, human Ror2; assay: ELISA, human Ror2, pH 7.4; remark: another data set of the same source

Point of comparison: B3, “Affinity ELISA pH 7.4” value 0.118. Against it:
- B1 — higher, 0.129
- B2 — higher, 0.133
- B4 — higher, 0.405
- B5 — higher, 0.332
- B6 — higher, 0.536

target: T1, human Ror2; assay: ELISA, human Ror2, pH 6.0

Point of comparison: B16, “Affinity ELISA pH 6.0” value 1.17. Against it:
- B7 — lower, 0.54
- B8 — lower, 1.11
- B9 — higher, 1.98
- B10 — lower, 0.799
- B11 — lower, 0.509
- B12 — lower, 0.903
- B13 — lower, 0.911
- B14 — higher, 1.89
- B15 — lower, 1.08
- B17 — higher, 1.75
- B18 — lower, 0.995
- B19 — lower, 0.823
- B20 — lower, 1.04
- B21 — higher, 1.67
- B22 — lower, 0.626
- B23 — higher, 1.34
- B24 — higher, 1.68
- B25 — lower, 0.928
- B26 — lower, 0.616
- B27 — higher, 1.24
- B28 — higher, 1.46
- B29 — higher, 1.83
- B30 — higher, 1.86
- B31 — lower, 0.794
- B32 — lower, 0.224
- B33 — higher, 1.47
- B34 — lower, 0.87

target: T1, human Ror2; assay: ELISA, human Ror2, pH 6.0; remark: another data set of the same source

Point of comparison: B3, “Affinity ELISA pH 6.0” value 1.87. Against it:
- B1 — lower, 0.406
- B2 — lower, 0.468
- B4 — lower, 0.911
- B5 — lower, 0.69
- B6 — lower, 1.1
